Test results taken from paper PMC3719020.

Legend:
[1] = target: Pelota (UniProt Q9BRX2); experiment: pull-down; 800 μl RRL incubated with 200 μl of Pelota resin (Pelota immobilized via CnBr); unconjugated quenched CnBr resin as control; depleted lysate blotted for Hbs1
[2] = target: 60S-nascent chain-tRNA complex (β-VHP) (not stated | rabbit (endogenous in reticulocyte lysate)) (UniProt P60468)
[3] = target: β-VHP ribosome-nascent chain complexes (RNCs) (not stated | rabbit (endogenous in reticulocyte lysate)) (UniProt P60468)

Chain of UniProt Q9BRX2 (Q9BRX2 whole entry): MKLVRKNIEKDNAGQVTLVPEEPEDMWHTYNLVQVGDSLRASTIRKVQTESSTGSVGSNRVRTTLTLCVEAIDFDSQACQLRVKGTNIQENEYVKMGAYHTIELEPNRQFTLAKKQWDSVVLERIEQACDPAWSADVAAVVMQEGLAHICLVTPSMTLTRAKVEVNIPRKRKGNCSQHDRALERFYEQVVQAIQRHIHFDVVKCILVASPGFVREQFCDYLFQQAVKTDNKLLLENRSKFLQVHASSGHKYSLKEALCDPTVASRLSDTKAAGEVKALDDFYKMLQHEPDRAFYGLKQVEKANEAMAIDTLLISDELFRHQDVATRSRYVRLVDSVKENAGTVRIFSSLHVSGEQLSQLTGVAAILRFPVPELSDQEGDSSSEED

Row | percent of Hbs1 depleted from the lysate by the Pelota resin [1] | nascent chain ubiquitination of sucrose gradient fractions incubated with E1, E2, ubiquitin and ATP; 60S-nascent chain complexes against 80S RNCs [2] | inhibition of β-VHP nascent chain ubiquitination by the GTPase mutant Hbs1 H348A (Hbs1-DN) added to the translation reaction [3] | inhibition of β-VHP nascent chain ubiquitination by the GTPase mutant Hbs1 V269G added to the translation reaction [3] | Substance
1 | 80 to 90% |  |  |  | Hbs1 (enzyme)
2 |  | 10 fold | 90% | 60% | Listerin (enzyme)
